According to patent US20260242478A1 (published 2026):
Where no end group is shown, it is not given here.

B1: Phage-3208 (peptide)
peptide: PFAYCVPQWMCEAF
modifications: cysteine pairing not given here; also: fused to phage pIII, linker and order not given here
notes: Peptide-180 library clone, tested as clonal phage supernatant; not shown: pIII filament protein of the bacteriophage, to which the peptide is fused
B2: Phage-3202 (peptide)
peptide: VVVSCIPTWMCVGF
modifications: cysteine pairing not given here; also: fused to phage pIII, linker and order not given here
notes: as for B1
B3: Phage-3209 (peptide)
peptide: DHHICRPAWMCMGL
modifications: cysteine pairing not given here; also: fused to phage pIII, linker and order not given here
notes: as for B1
B4: Phage-3212 (peptide)
peptide: TVPLCKPLWMCYGF
modifications: cysteine pairing not given here; also: fused to phage pIII, linker and order not given here
notes: as for B1
B5: Phage-3203 (peptide)
peptide: VSVRCEPEWMCMGF
modifications: cysteine pairing not given here; also: fused to phage pIII, linker and order not given here
notes: as for B1
B6: Phage-3206 (peptide)
peptide: TVVKCVPEWMCEWL
modifications: cysteine pairing not given here; also: fused to phage pIII, linker and order not given here
notes: as for B1
B7: Phage-3201 (peptide)
peptide: VVPLCIPQWMCAVF
modifications: cysteine pairing not given here; also: fused to phage pIII, linker and order not given here
notes: as for B1
B8: Phage-3199 (peptide)
peptide: VTVRCEPAWMCMGF
modifications: cysteine pairing not given here; also: fused to phage pIII, linker and order not given here
notes: as for B1
B9: Phage-3210 (peptide)
peptide: DTPKCIPQWMCVGF
modifications: cysteine pairing not given here; also: fused to phage pIII, linker and order not given here
notes: as for B1
B10: Phage-3204 (peptide)
peptide: LERLCQPSWMCTGF
modifications: cysteine pairing not given here; also: fused to phage pIII, linker and order not given here
notes: as for B1
B11: Phage-3200 (peptide)
peptide: VTPLCVPKWMCELF
modifications: cysteine pairing not given here; also: fused to phage pIII, linker and order not given here
notes: as for B1
B12: Phage-3211 (peptide)
peptide: PEAMCRPTWMCAGF
modifications: cysteine pairing not given here; also: fused to phage pIII, linker and order not given here
notes: as for B1
B13: Phage-3205 (peptide)
peptide: VVKICQPDWMCWGF
modifications: cysteine pairing not given here; also: fused to phage pIII, linker and order not given here
notes: as for B1
B14: Phage-3207 (peptide)
peptide: HDPACVPSWMCFGF
modifications: cysteine pairing not given here; also: fused to phage pIII, linker and order not given here
notes: as for B1
B15: Phage-3239 (peptide)
peptide: DSVLCVPSWMCHGF
modifications: cysteine pairing not given here; also: fused to phage pIII, fusion site not given here
B16: Phage-3198 (peptide, not shown: large carriers)
peptide: FDRVCKPEWMCNGL
notes: Clonal phage of the Peptide-180 library, tested as crude supernatant
B17: Phage-3196 (peptide, not shown: large carriers)
peptide: VEVRCVPAWMCTGF
notes: as for B16
B18: Phage-3194 (peptide, not shown: large carriers)
peptide: DMPLCIPAWMCAGF
modifications: cysteine pairing not given here; also: fused to phage pIII, junction sequence not given here
notes: as for B16
B19: Phage-3195 (peptide, not shown: large carriers)
peptide: HEHFCRPLWMCTGL
notes: as for B16
B20: Phage-3197 (peptide, not shown: large carriers)
peptide: LSPMCVPQWMCSGF
notes: as for B16

Target: T1, PSMA Fab
T1 construct: also called Anti-PSMA Fab; 006 PSMA Fab
Experiment: phage binding ELISA; biotinylated PSMA Fab on neutravidin plate, clonal phage supernatant, anti-M13 HRP detection; blocking buffer alone;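 further: before phage were added, wells were preincubated with blocking buffer either containing PSMA antigen or without it, and phage were then added with no wash in between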
Protocol: (§1) Clonal phage were harvested as crude supernatants and screened via standard ELISAs. […] Prior to the addition of clonal phage. wells were incubated with blocking buffer and PSMA antigen or blocking buffer alone. Without washing or aspirating, clonal phage supernatants were then added to the wells and incubated for a short time. Wells were then washed followed by detection of bound phage using a horse radish conjugated anti-M13 antibody.

Binder | Phage binding ELISA signal, Anti-PSMA Fab
B1 | 1.98
B2 | 1.98
B3 | 1.97
B4 | 1.97
B5 | 1.98
B6 | 1.98
B7 | 1.98
B8 | 1.98
B9 | 1.97
B10 | 1.98
B11 | 1.98
B12 | 1.97
B13 | 1.98
B14 | 1.98

Target: T2, PSMA Fab (006 PSMA Fab)
T2 construct: also called Anti-PSMA Fab; anti-PSMA Fab
Experiment: phage ELISA; biotinylated PSMA Fab on neutravidin plate, clonal phage supernatant, anti-M13 HRP; blocking buffer alone
Protocol: as §1

Binder | Phage binding ELISA signal, Anti-PSMA Fab
ETSMCRPSWMCEGF [Phage-3242] | 1.94
LSAMCVPPWMCTGF [Phage-3244] | 1.94
GFRICEPEWMCVGF [Phage-3240] | 1.94
MVERCIPVWMCEGF [Phage-3241] | 1.94
B15 | 1.94
VNVRCEPSWMCTGL [Phage-3243] | 1.94
NILRCEPMWMCTGF [Phage-3245] | 1.94

Target: T1, PSMA Fab
Experiment: phage binding ELISA; biotinylated PSMA Fab on neutravidin plate, wells pre-incubated with PSMA antigen as competitor, clonal phage supernatant, anti-M13 HRP detection
Protocol: as §1

Binder | Phage binding ELISA signal, Anti-PSMA Fab in presence of PSMA
B1 | 0.0639
B2 | 0.103
B3 | 0.0876
B4 | 0.184
B5 | 0.0741
B6 | 0.0606
B7 | 0.0757
B8 | 0.0999
B9 | 0.0677
B10 | 0.0739
B11 | 0.0878
B12 | 0.0674
B13 | 0.0655
B14 | 0.0668

Target: T2, PSMA Fab (006 PSMA Fab)
Experiment: phage ELISA; biotinylated PSMA Fab on neutravidin plate pre-incubated with PSMA antigen as competitor, clonal phage supernatant, anti-M13 HRP
Protocol: as §1

Binder | Phage binding ELISA signal, Anti-PSMA Fab with PSMA antigen
ETSMCRPSWMCEGF [Phage-3242] | 0.0918
LSAMCVPPWMCTGF [Phage-3244] | 0.138
GFRICEPEWMCVGF [Phage-3240] | 0.0629
MVERCIPVWMCEGF [Phage-3241] | 0.0937
B15 | 0.0834
VNVRCEPSWMCTGL [Phage-3243] | 0.0801
NILRCEPMWMCTGF [Phage-3245] | 0.0977

Target: T3, PSMA Fab (006 PSMA Fab)
T3 construct: also called Anti-PSMA Fab; anti-PSMA Fab
Experiment: clonal phage ELISA on captured PSMA Fab, wells pre-incubated with PSMA antigen as competitor
Protocol: as §1

Binder | Phage binding ELISA signal, Anti-PSMA Fab in presence of PSMA antigen
B16 | 0.0655
B17 | 0.0941
B18 | 0.0615
B19 | 0.0753
B20 | 0.119

Target: T3, PSMA Fab (006 PSMA Fab)
Experiment: clonal phage ELISA on biotinylated PSMA Fab captured on neutravidin, anti-M13-HRP detection;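 further: crude clonal phage supernatants added to wells preincubated with PSMA antigen in blocking buffer or with blocking buffer alone, brief binding period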
Protocol: as §1

Binder | Phage binding ELISA signal, Anti-PSMA Fab
B16 | 1.99
B17 | 1.99
B18 | 1.99
B19 | 1.99
B20 | 1.99
